Measurements taken from patent US8445662B2, “Mycobacterium tuberculosis fusion protein and uses thereof” (The 309th Hospital, The People's Liberation Army, priority 2006, dated 2013).

Conditions: guinea pig, in vivo

Bovine serum albumin (BSA): positive control group in the guinea pig anaphylaxis test
Averaged weight (g), during excitation: 447.1 ± 41.4 g | Averaged weight (g), sensitized upon the last injection: 380.6 ± 23.6 g | Reaction level + (number of guinea pigs): 0 | Reaction level ++ (number of guinea pigs): 0 | Reaction level +++ (number of guinea pigs): 3 | Reaction level ++++ (number of guinea pigs): 0 | Reaction level − (number of guinea pigs): 3
